Measured values: the supplement of paper PMC10567573

B1: KRT18 (parent)
chain: PQVRDWSHYFKIIEDLRAQIFANT
B2: STEAP1 (parent)
chain: LWKMKPRRNLEEDDYLHKDTGETS

Variants of: B1
Assay: protein stability index of a GFP-peptide fusion (GPS, HEK-293T) (PSI 1-6); higher = more stable
Conditions: c terminus: a fixed tail appended
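Further: lentivirally expressed fusions sorted by FACS into six bins by GFP to DsRed ratio, PSI derived from sequencing read proportions per bin multiplied by bin number.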

Protein stability index, by site and new letter:
Y9: D 2.95; T 1.81; R 2.25; G 1.75; S 2.56; M 1.89; W 2.5; L 2.17; C 1.97; N 2.71; P 2.36; F 1.94; I 2.12; K 1.76; V 2.48; Q 2.42; A 2.24; E 2.55; H 2.5
K11: M 1.42; S 2.75; E 1.52; R 2.11; T 1.98; G 1.74; H 2.25; Y 1.35; L 3.02; D 1.84; Q 2.5; C 2.12; V 2.99; A 2.1; W 3.08; P 1.55; I 2.25; N 1.49
Q19: Y 1.65; C 1.86; P 1.97; M 1.89; H 2.09; R 2.45; L 1.79; V 1.59; T 2.8; D 2.49; K 2.12; G 2.34; N 2.56; A 2.05; E 2.62; S 2.67; F 1.7; W 2.39; I 1.42
F10: C 2.25; N 1.89; H 2.57; Q 3.22; D 1.9; W 2.7; R 2.58; G 2.4; E 2.26; T 3.01; K 1.86; M 2.56; I 2.23; Y 1.54; L 2.17; A 2.29; P 3.18; V 1.69; S 2.15
I12: E 2.45; K 1.85; Y 2.2; S 2.3; Q 2.41; G 2.72; P 2.24; M 1.92; A 2.53; L 2.27; N 3.55; T 2.78; R 2.55; V 2.04; F 1.9; C 2.38; H 2.36; W 3.05; D 3.17
F21: T 1.97; W 1.84; P 2.15; H 2.4; G 2.52; M 2.16; V 2.39; Q 2.46; I 1.91; C 1.97; K 2.98; A 2.83; E 2.98; D 3.27; L 2.7; N 2.46; R 2.33; S 2.32; Y 3.6
A18: W 2.34; L 2.29; Q 2.02; I 2.13; T 1.48; P 2.15; V 1.97; D 2.44; S 2.25; N 2.8; F 2.24; M 1.81; E 2.7; R 2.44; K 2.68; G 1.9; Y 1.77; H 1.88; C 1.94
T24: L 2.31; V 2.04; M 2.81; G 2.5; N 2.74; A 1.9; S 2.31; Q 2.47; E 3.47; R 2.23; P 2.84; K 2.53; Y 1.72; I 2.6; F 2.34; H 2.43; W 2.27; C 2.02; D 2.75
R17: C 1.62; T 2.27; A 2.14; V 1.89; D 2.4; L 1.96; M 2.12; E 2.61; W 1.97; G 2.3; K 3.07; Y 1.51; P 2.15; F 1.54; I 2.61; H 2.58; Q 2.19; S 2.02; N 2.64
N23: M 2.1; A 1.86; P 1.91; Y 1.56; R 2.57; E 2.8; L 2.53; Q 1.86; T 1.56; V 2.08; K 2.06; C 2.36; S 2.33; H 2.35; D 2.43; F 1.22; I 1.93; W 1.95
L16: C 1.7; R 2.33; Q 2.47; G 2.32; D 2.22; T 2.09; W 2.05; P 2.38; V 1.96; A 2.17; S 2.03; F 1.53; H 2.13; K 1.85; N 2.62; I 2.03; Y 2.26; E 2.63; M 2.08
D15: M 2.87; G 2.16; R 1.89; S 2.09; N 2.1; Q 1.71; F 1.58; T 1.78; Y 3.62; E 2.28; I 1.74; K 3.02; H 1.57; A 2.47; L 2.69; P 1.4; V 2.32; W 1.61
S7: Y 1.61; V 2.53; W 1.95
A22: T 2.14; H 2; G 2.51; S 2.17; W 1.41; K 2.1; M 2.37; E 2.12; Q 2.72; L 1.45; N 2.53; V 2.01; Y 1.64; R 1.99; P 2.4; C 1.9; I 2.5; F 1.8; D 2.49
E14: W 2.79; L 1.39; Y 1.9; Q 2.64; I 2.46; R 2.27; D 2.28; P 1.67; H 2.69; N 2.03; F 1.59; A 2; K 2.77; S 2.26; M 2.32; C 2.33; G 2; T 2; V 2.11
I20: G 2.9; F 2.22; Y 2.16; T 2.83; M 2.15; S 2.17; K 2.7; D 2.59; H 1.89; W 1.62; Q 2.09; C 1.86; V 2.08; A 2.07; R 2.75; P 1.91; E 2.86; L 2; N 3.05
I13: T 2.54; F 2.12; G 2.9; R 2.69; W 3.46; S 2.15; L 2.27; C 2.3; M 1.62; P 2.63; A 2.77; E 2.32; N 2.38; H 2.16; Y 1.72; V 2.87; Q 2.75; K 1.79; D 2.9
H8: P 1.83; F 1.59; M 2.28; R 1.98; I 2.4; V 2.17; L 2.43; Y 2.08; A 2.06; N 2.24; S 2.23; T 1.6; E 2.49; G 2.58; W 1.34; C 1.78; Q 1.83; K 2.59; D 1.92

Variants of: B2
Assay: as above
Conditions: c terminus: a fixed tail appended

Protein stability index of substitutions, site by site:
L1: E 5.32; I 3.97; A 5.06; H 4.92; M 4.59; K 4.57; G 4.75; C 4.43; F 4.31; N 4.84; D 5.23
